Source: the nanobody polyreactivity screen of Harvey et al. (2022)

Assay: yeast display, Sf9 membrane polyspecificity reagent, FACS + sequencing; frameworks hold sequencing errors
In short: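 In a synthetic yeast display library (Saccharomyces cerevisiae BJ5465), nanobody expression was induced with galactose for 36–48 hours. FACS gates were set low and high (top ~1%) using anti-HA fluorescence for expression and streptavidin fluorescence for binding of the Sf9 membrane reagent. Each polyreactivity label is drawn from the gate of origin.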

| Sequence | polyreactivity (PSR sort gate) |
| --- | --- |
| QVQHVESAGGLVQAGGSLSLSCAASGSIFNLYAMGWYRQAPGKERELVAAIRWDGGSTYNADSVKGRFTISRDTAKNTVYLQMNSLKPEDTAVYYCAAETVYFRLLILDYWGQGTQVTVSS | high polyreactivity |
| QVQLVESGGGLVQAGGSLRLSCAASGRTFTYYSMGWYRQAPGKERELVAAISSGGRTNYADSVKGRFTISRDNAKNTVYLQMNSLKPEDTAVYYCAADGTTFRNRYYFHRMDFWGQGTQVTVSS | high polyreactivity |
| QVQLVESGGGLVQAGGSLRLSCAASGRIFIIYAMGWYRQAPGKERELVAAINRGATTNYADSVKGRFTISRDNAKNTVYLQMNSLKPEDTAVYYCAARGVAKLRRVGYWGQGTQVTVSS | high polyreactivity |
| QVQLEESGAGVVQAGGSLRLSCAASGRTFQYNAMGWYRPAPGTERELVAAISSSGGSTYYADSVKGRFTISRDNAKNTVYFQMNSLNPEDTAVYYCNAYSQSWNFYGVGDYWGQGTQVTVSS | low polyreactivity |
| QVQLVESGGGLVQAGGSLRLSCAASGSTFVYYAMGWYRQAPGKERELVATINYNGGSTSYADSVKGRFTISRDNAKNTVYLQMNSLKPEDTAVYYCAKDRYYTWGDYWGQGTQVTVSS | low polyreactivity |
| QVQLVESGGGLVQAGGSLRLSCAASGRIFRAYAMGWYRQAPGKERELVASITGSGGSTYYADSVKGRFTISRDNAKNTVYFQMNILKPEDTAVYYCAVASYRVWGVGTRYYYWGQGTHVTVSS | high polyreactivity |
| QVLLVESGGGLVQAGGSLRLSCAASGSILRTYAMGWYRQAPGKERELVAAITWSGGSTRYADSVKGRFTISRDNAKNTVYLQMNSLKPEDTAVYYCNARYRVYSYALYKYGYWGQGTQVTVSS | high polyreactivity |
| HVQLVESGGGLVQAGGSLRLSCAASGSTFGRYVMGWHRQAPGKERELVAAISKNAGSTYYADSVKGRFTISRDNAKNTVYLKMASLKPEDTAVYYCAADWRTKGYDSLGQGTQVTVSS | high polyreactivity |
| QVQLVESGGGLVQAGGSLRLSCAASGRIFGVYVMGWYRQAPGKERELVAAISWSGSHTYYADSVKGRFTISRDNAKNTVYLQMNSLKPEDTAVYYCAAGASLWRLGLKMGYWGQGTQVTVSS | low polyreactivity |
| QVQLVESGGGLVQAGGSLRLSCAASGFIIDSYAMGWYRQAPGKERELVATITKGGGRTYYADSVKGRFTISRDNAKNTVYLQMNSLKPEDTAVYYCNARGFSRRKGLDYWGQGTQVTVSS | low polyreactivity |
| QVQHVESGGGLVQAGGSLRISCAPSGRTFFPNAMGCYRQAPGKEREFVAAITKTDDSTYYADSVKGRFTISRDNAKNTVYLPMNSLKPEDTAVYYCNAGDTQIRFYYWGQGTQETVSS | low polyreactivity |
| QVQLVESGGGLVQAGGSLRLSCAASGRILRINPMGWYRQAPGKERELVAAISGSGGTTYYADSVKGRFTISRDNAKNTVYLQMNSLKPEDTAVYYCNKAIWYAEYDYWGQGTQVTVSS | low polyreactivity |
| QVQLVESGGGLVQAGGSLRLSCAASGRTFFKYAMGWYRQAPGKERELVAAITWGGDRTFYADSVKGRFTISRDNAKNTVYLQMNSMKADETAVYYCAAEVLPNVYVYQSARGFYYWGQGTQVTVSS | high polyreactivity |
| QDHLVESGGGLVQAGCSLRLTCAASGSIFIPNAMGWYRQAPGKERYLVAAIRSGGSSYYADSVKGRFTISRDNAKNTVYLQMNSLKPEDTAVYYCAADTYTYYYYLARYYYWGQGTQVTVSS | low polyreactivity |
| QVQLVESGGGLVQAGGSLRLSCAASGRTFTHYAMGWYRQAPGKERELVASISDGGRTHYADSVKGRFTISRDNAKNTVYLQMNSLKPEDTAVYYCATDRYPTRRYDYWGQGTQVTVSS | low polyreactivity |
| QVQLVESGGGLVQAGGSLRLSCAASGFTFESYAMGWYRQAPGKERELVAAISWNGGSTYYADSVKGRFTISRDNAKNTVYLQMNSLKPEDTAVYYCAARGRAPRFRRIGYDYWGQGTQVTVSS | high polyreactivity |

| Sequence | polyreactivity (PSR sort gate) |
| --- | --- |
| QVQLVESGGGLVQAGGSLRLSCAASGSTFATYAMGWYRQAPGKERELVAAIRVSGGTTYADSVKGRFTISRDNAKNTVYLQMNSLKPEDNAVYYCAATGWEVYDIFDYWVQGTQVTVSS | low polyreactivity |
| QVQLVESGGGLVQAGGSLRLSCAASGSIFRVYAMGWYRQAPGKERELVARISRGGRTNYADSVKGRFTISRDNAKNTVYLQMNSLKPEDTSVYYCAADVVSLESYSYQSLGYDSWGQGTQVNVSS | high polyreactivity |
| QGQLVESGGGLVQAGGSLRLTCAASGLTFRRYTMGSYRQAPGNERELVAPISGSGGSTYYADSVKGRFTISRDSAKNTVYFQMNSLKPEDTAVSYCNAPYLHYVIVFTDYSQRYDYWGQGTQVTVSS | high polyreactivity |
| QVQLVESGGGLVQAGGSLRLSCAASGSTFPKYAMGWYRQAPGKERELVASISVTTGSTYYADSVKGRFTISRDNAKNTVYLQMNSLNPEDTAVYYCAKRTYSRKFRGAYNYWGQGTQVTVSS | high polyreactivity |
| QLQLVESGGGIVQAGGRLRLSCAASGLIFYLYAMGWYRQAPGKERELVATITTGGRTNYADSVKGRFTISRDNAKISVYLQMNSLTPVDTAVYYCAATHRGQGGYYWGQGSQVTVSS | low polyreactivity |
| QVQLVESGGGLFQARGSLRLSCAASGSTFGFYARGWYRQATGKERELVAASSRGGSTNYADSVKGRFTISRDNAKNTVYLQLNSLKPEDTAGYYCAKAYHATSDYWGQGTQVTVSS | low polyreactivity |
| QFQLVESGGGLVQAGGSLRLSCAASGFTFTVYAMGWYRQAPGKERELVAAITRGTSTYADSVKGRFTISRDNAKNTVYLQMNSLKPEDTAVYYCAARSSPWYTRYRSSELFDYWGQGTQVTVSS | high polyreactivity |
| QVQLVESGGGLVQAGGSLRLRCAASGFIFRLYAMGWYIQAPGKERELVASITQGGSTYYADSVKGRFTISRDNAKNTVYLLMNSLKPEDTAVNDCAATYLHVYRRRFYYWGQGTQVSVSS | high polyreactivity |
| QVQLVESGGGLVQAGGSLRLSCAASGITFFVYDMGWYRQAPGKERELVAAITWSGDSTYYADSVKGRFTISRDNAKNTVYLQMNSLKPEDTAVYYCAAQFDVYYSRQPYDYNRSGYWGQGTQVTVSS | low polyreactivity |
| QVHLVESGGGLVQAGGSLRLSCAASGFTFRRYAMGWDRQAPGKERELVASISSGGSTNYADSVKGRCTISRDNAKNTVYLQMNSLIPEDTAVYYCAVSYRSFRYYWERYYSWGQGTQVTVSS | high polyreactivity |
| QVQLVESGGGLVPAGGSLRLSCAASGITIGRNTMGWYRQAPGKERELVAAIDSGGNTYADSVKGRFTISRDNAKNTVYLQMNSLKPEDTAVYYCAVDGGEFSSYGYWGQGTQVTVSP | low polyreactivity |
| QVQLVESGGGLVQAGGRLRLSCADSGLIIYYYAMGWYRQAPGKEREFVAAITSSGGSTSYADSVKGRFTISRDNAKNTVYLQMNSLKPEDTAVYYCAARSKSEGGYWGQCTQVTVSS | high polyreactivity |
| QVQLVESGGGLVQAGGSLRLSCAASGRTFYFNAMGWYRQAPGKERELVATITRRGGSTSYADSVKGRFTISRDNAKNTVYLQMNSLKPEDTAVYYCGNVSPPKFPERFDYWGQGTQVTVSS | low polyreactivity |
| QVQLVESGGGLVQAGGSLRLSCAASGRILVPYAMGWYRQAPGKERELVAAINPRGGRTYYADSVKGRFTISRDNAKYTVYLQMNSLKPEDTAVYYCNALAHQYHRYEFGYWGQGTQVTVSS | low polyreactivity |
| QVQLVESGGGLVQAGGSLRLSCAASGFTIQFYTMGWYRQAPGKERELVAAISYNGDSTYYADSVKGRFTISRDNAKNTVYLQMNSLKPEDTAVYYCNTDLGTIYYYGYDYWGQGTQVTVSS | high polyreactivity |
